Measurements from US20260167721A1 (ABLEXIS, published 2026).

How the values were obtained:
[1] = target: CD3 on effector cells (human Pan-T or PBMC) (human, UniProt P07766 23-207; P04234 22-171; P09693 23-182; P20963 22-164); test: cell-based or functional assay
[2] = target: recombinant CD3 proteins; test: Octet (BLI), bispecific antibody against recombinant CD3 proteins
[3] = target: recombinant CD3 proteins; test: Octet (BLI), bispecific antibody against recombinant CD3 proteins; Full R^2 0.00
[4] = target: T1, recombinant human CD3 epsilon/delta heterodimer (human, UniProt P07766 23-126; P04234 22-105); test: Octet BLI, mAb on FAB2G sensor, hCD3 E/D 200-50 nM; R^2 0.98;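 further: antibodies purified from hybridoma supernatants, measured by Octet binding to recombinant human CD3 protein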
T1 construct: Recombinant protein in solution (200-50 nM) in the Octet assay; also called hCD3 E/D; human CD3E/D

[5] = target: T2, recombinant human CD3 epsilon/gamma heterodimer (human, UniProt P07766 23-126; P09693 23-116); test: Octet BLI, mAb on FAB2G sensor, hCD3 E/G 200-50 nM; R^2 0.90
T2 construct: Recombinant protein in solution (200-50 nM) in the Octet assay; also called hCD3 E/G
T2 sequence (P07766 23-126, chain 1 of 2): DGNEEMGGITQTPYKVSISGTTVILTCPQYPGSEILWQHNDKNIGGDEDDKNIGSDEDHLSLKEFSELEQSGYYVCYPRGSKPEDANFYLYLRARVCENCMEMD
T2 sequence (P09693 23-116, chain 2 of 2): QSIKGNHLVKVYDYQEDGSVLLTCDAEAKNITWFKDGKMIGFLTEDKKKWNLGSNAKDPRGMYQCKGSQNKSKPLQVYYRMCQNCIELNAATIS

T1 sequence (P07766 23-126, stated change not applied, chain 1 of 2): as the sequence (P07766 23-126, chain 1 of 2) above
T1 sequence (P04234 22-105, stated change not applied, chain 2 of 2): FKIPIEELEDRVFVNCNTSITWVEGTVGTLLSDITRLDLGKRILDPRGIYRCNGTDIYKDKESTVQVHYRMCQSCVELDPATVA
Sequence of CD3 on effector cells (human Pan-T or PBMC) (P07766 23-207, chain 1 of 4): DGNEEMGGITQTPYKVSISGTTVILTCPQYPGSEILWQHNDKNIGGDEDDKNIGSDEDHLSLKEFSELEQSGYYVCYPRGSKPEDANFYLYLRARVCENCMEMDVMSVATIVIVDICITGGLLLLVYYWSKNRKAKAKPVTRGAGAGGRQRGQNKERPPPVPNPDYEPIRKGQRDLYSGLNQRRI
Sequence of CD3 on effector cells (human Pan-T or PBMC) (P04234 22-171, chain 2 of 4): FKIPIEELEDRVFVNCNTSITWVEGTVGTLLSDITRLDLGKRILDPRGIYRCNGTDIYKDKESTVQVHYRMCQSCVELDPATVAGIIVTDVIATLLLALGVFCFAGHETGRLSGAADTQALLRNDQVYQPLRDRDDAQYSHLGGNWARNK
Sequence of CD3 on effector cells (human Pan-T or PBMC) (P09693 23-182, chain 3 of 4): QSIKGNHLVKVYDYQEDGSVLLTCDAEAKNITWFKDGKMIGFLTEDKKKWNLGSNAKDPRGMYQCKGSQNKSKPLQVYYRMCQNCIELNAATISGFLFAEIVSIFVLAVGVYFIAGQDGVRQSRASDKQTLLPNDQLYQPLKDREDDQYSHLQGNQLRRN
Sequence of CD3 on effector cells (human Pan-T or PBMC) (P20963 22-164, chain 4 of 4): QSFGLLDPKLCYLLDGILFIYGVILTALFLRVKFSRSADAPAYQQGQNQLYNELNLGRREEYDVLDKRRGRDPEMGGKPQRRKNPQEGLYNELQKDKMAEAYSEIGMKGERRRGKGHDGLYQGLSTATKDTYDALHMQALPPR

Row | Response [2] | Kd [3] [nM] | koff [3] [s⁻¹] | kon [3] [M⁻¹ s⁻¹] | Kd [4] [nM] | Response [4] | koff [4] [s⁻¹] | kon [4] [M⁻¹ s⁻¹] | Kd [5] [nM] | Binder | RTCC EC50 (nM), KILR HL-60 T Cell Redirection cytotoxic assay with CD33-expressing target cells [1] [nM]
1 | 0.03 | 0.854 | 1.07e-05 | 12500 |  |  |  |  |  | CD3 × CD33-BspAb66 (bispecific antibody, human IgG1, kappa, also called CD3δε-specific control antibody scFv-Fc knob/TM; CD3xCD33-BspAb66) scFv: EVQLVESGGGLVQPGRSLRLSCAASGFTFDDYAMHWVRQAPGKGLEWVSGISWNSGSIGYADSVKGRFTISRDNAKNSLYLQMNSLRAEDTALYYCAKDSRGYGDYRLGGAYWGQGTLVTVSSGGGGSGGGGSGGGGSGGGGSEIVMTQSPATLSVSPGERATLSCRASQSVSSNLAWYQQKPGQAPRLLIYGASTRATGIPARFSGSGSGTEFTLTISSLQSEDFAVYYCQQYNNWPWTFGQGTKVEIKTSGPGGPDKTHTCPPCPAPEFEGGPSVFLFPPKPKDTLMISRTPEVTCVVVDVSHEDPEVKFNWYVDGVEVHNAKTKPREEQYNSTYRVVSVLTVLHQDWLNGKEYKCKVSNKALPASIEKTISKAKGQPREPQVYTLPPCREEMTKNQVSLWCLVKGFYPSDIAVEWESNGQPENNYKTTPPVLDSDGSFFLYSKLTVDKSRWQQGNVFSCSVMHEALHNHYTQKSLSLSPGK heavy: EVQLVQSGAEVKKPGSSVKVSCKASGYTITDSNIHWVRQAPGQSLEWIGYIYPYNGGTDYNQKFKNRATLTVDNPTNTAYMELSSLRSEDTAFYYCVNGNPWLAYWGQGTLVTVSSASTKGPSVFPLAPSSKSTSGGTAALGCLVKDYFPEPVTVSWNSGALTSGVHTFPAVLQSSGLYSLSSVVTVPSSSLGTQTYICNVNHKPSNTKVDKRVEPKSCDKTHTCPPCPAPEFEGGPSVFLFPPKPKDTLMISRTPEVTCVVVDVSHEDPEVKFNWYVDGVEVHNAKTKPREEQYNSTYRVVSVLTVLHQDWLNGKEYKCKVSNKALPASIEKTISKAKGQPREPQVCTLPPSREEMTKNQVSLSCAVKGFYPSDIAVEWESNGQPENNYKTTPPVLDSDGSFFLVSKLTVDKSRWQQGNVFSCSVMHEALHNRFTQKSLSLSPGK light: DIQLTQSPSTLSASVGDRVTITCRASESLDNYGIRFLTWFQQKPGKAPKLLMYAASNQGSGVPSRFSGSGSGTEFTLTISSLQPDDFATYYCQQTKEVPWSFGQGTKVEVKRTVAAPSVFIFPPSDEQLKSGTASVVCLLNNFYPREAKVQWKVDNALQSGNSQESVTEQDSKDSTYSLSSTLTLSKADYEKHKVYACEVTHQGLSSPVTKSFNRGEC | 25.4
2 |  |  |  |  | 356 | 0.03 | 0.000184 | 517 | < 0.001 | ABL-CD3-44 (antibody, V domains shown, Chimeric hybridoma mAb: human V, CH1, upper hinge; mouse middle hinge, CH2, CH3) VH: EVQLVESGGGLVQPGGSLRLSCAASGFTFSTYWMSWVRQAPGKGLEWVANIKQDGSEKYYVDSVKGRFTISRDNAKNSLYLQMNSLRAEDTAVYYCATGSFDYWGQGTLVTVSS VL: QPVLTQPSSHSASSGASVRLTCMLSSGFSVGDFWIRWYQQKPGNPPRYLLFYHSDSNKGQGSGVPSRFSGSNDASANAGILRISGLQPEDEADYYCGTWHSNSKTWVFGGGTKLTVL | 
